Assay results reported in the supplement of paper PMC9170038.

What was measured:
[1] = test system: MS2 coat protein; experiment: apparent KD of MS2 coat protein; designed switch direction (-1 OFF switch, 1 ON switch): 1; higher = weaker reporter binding; conditions: Eterna round: R98
Procedure: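 RNA-MaP: designed FMN/MS2 RNA switches (84 nt design region) are transcribed on-chip within common flanks and titrated with SNAP-549-labelled MS2 coat protein (about 1-3000 nM) in 100 mM Tris pH 7.5, 80 mM KCl, 4 mM MgCl2, without or with 200 uM FMN. Median apparent KD per design; activation ratio = KD,OFF / KD,ON.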

[2] = test system: MS2 coat protein; experiment: apparent KD of MS2 coat protein, switch ON state; designed switch direction (-1 OFF switch, 1 ON switch): 1; higher = weaker reporter binding; conditions: FMN input: 0 or 200 uM; Eterna round: R93 (includes R88 designs)
Method in brief: (§1)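 Normalised binding curves from single clusters were fitted, and the median fit for each design is given as apparent KD. The clusters held designed RNA switches transcribed on-chip from Illumina sequencing clusters. These were titrated with SNAP-549-labelled MS2 coat protein (twofold steps from 0.7 or 1.5 nM to 3 µM, 0.8–1.5 h to 10–20 min per step) in 100 mM Tris-HCl pH 7.5, 80 mM KCl, 4 mM MgCl2, without or with constant ligand.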

[3] = test system: MS2 coat protein; experiment: apparent KD of MS2 coat protein, switch OFF state (with FMN for OFF switches, without FMN for ON switches); designed switch direction (-1 OFF switch, 1 ON switch): 1; higher = weaker reporter binding; conditions: FMN input: 0 or 200 uM; Eterna round: R93 (includes R88 designs)
Method in brief: as §1

Row | Sequence | apparent KD of MS2 coat protein ([1]; input ligand: FMN 200 uM) | apparent KD of MS2 coat protein ([1]; input ligand: none) | apparent KD of MS2 coat protein [2] | apparent KD of MS2 coat protein [3]
1 | AGCGGUAGGACAGGAUAUGGUGACUUCAAGCGGCCAGAAGGGUCCCGACAUGAGGAUCACCCAUGUCUUCCAGGCAGGAAGCGC [Bequques] | 0.443 µM | 0.239 µM |  | 
2 | UAUAUAUAUUGAGGAUAUGCACAGGAUCACCGUGUAGAAGGCAUCAGGGAGAAGGUGCAGAGGAUCACCCUGUAAGGAUAUCAU [pwkr2 ssNG1 DX.1] | 0.146 µM | 0.205 µM |  | 
3 | AAAAUAUAAUAUAUUAACAUGAGGAUCACCCAUGUCGCUAGACAGGAUAUAUAAAAUAAAAUAAAGUAGAAGGGUCAUAUAAUA [LRO003_SS NG 3] | 0.0939 µM | 0.0564 µM |  | 
4 | UCCGAUGUACAUGAGGAUCACCCAUGUCAUAUGCCCGUGACACAGGAUAUCCAGGGUAGGCCAAAGGAGAAGGGUGAUCCGCGG [Lelete] | 0.122 µM | 0.0518 µM |  | 
5 | GGUCCAACAUGAGGAUAUGGCACCUUAUUGGUGCCAGAAGGCGUGUCGAUAGACAUGAGGAUCACCCAUGUAAUAAAUUGGACC [SameState #23 NG1] | 0.138 µM | 0.467 µM |  | 
6 | UUUAUUUUUAGAGGAUAUAUAGAGAGAGAGAGAAUAGAAGGCUAAACAUACAUGAACAUGAGGAUCACCCAUGUCACCCAUGUU [Attempt 2] | 0.0343 µM | 0.0283 µM |  | 
7 | GUCGAAUUCUUAGGAUAUCGAGUGGAAUACACUCGAGAAGGAAGAUAUACCUGAGGAUCACCCAGGUUAAACUGAACGACAAUA [Same State NG1 - A3C, U17G Submission 7C] | 0.0176 µM | 0.0176 µM |  | 
8 | UAGUGUUCUCGAGGAUAUGGGUUCCGUUUUAGCCCAGAAGGCGAACAUGAGGAUCACCCAUGUAUGAAUACACAGCAGAAUUGU [Teedri] | 0.153 µM | 1.75 µM |  | 
9 | AAAAGACAUGAGGAUCACCCAUGUCGAAAGACAUGAGGAUAUGUACAGACUUCGGUCUGUACAGAAGGCAUAAAAA [SS1 - 1061] |  |  | 0.027 µM | 0.0895 µM
10 | AGAAAUAAAAGAGAGGAUAUCCAAAAUAAAACAUGAGGAUCACCCAUGUGAAACAAAACAAAAUGGGAGAAGGCUCAAAAUAAGA [Topaz 17] |  |  | 0.0157 µM | 0.0339 µM
11 | UAAAAAAAAAGACAGGAUAUCCAAAAGAAAACAUGAGGAUCACCCAUGUAAAAGAAAAUAAAAUGGGAGAAGGGUCAAAAAAAAU [Mat - Same State 2 - JL mod - D79] |  |  | 0.031 µM | 0.0535 µM
12 | AUAUAUAUAAGGUAGGAUAUUCUAAAGUAAACAUGAGGAUCACCCAUGUAAAGAAAGAAACUCAUGGAGAAGGACCAUAUAUAUA [Modifying Tesla's highscorer (77%) - Adding G segment] |  |  | 0.0199 µM | 0.0848 µM
13 | AAGAAACAUGAGGAUCACCCAUGUAAGAUAAACACAGGAUAUGCGAAAAGAAAUAAAGAAGCAGAAGGGUGAAGAA [Mat - Same State 1 - Tesla mod - 63] |  |  | 0.0217 µM | 0.0543 µM
14 | AUAUAUAUAAGGUAGGAUAUACUAAAGUAAACAUGAGGAUCACCCAUGUAAAGAAAGAAACUCAUGUAGAAGGACCAUAUAUAUAU [Ex 6 sub 1] |  |  | 0.0248 µM | 0.163 µM
15 | AAAAAACAUGAGGAUCACCCAUGUGCAAAAUUCGCAGGAUAUUCCUCAAUUAAAUGAGAGGAAGAAGGGUGACAAA [Nob's Hobby 29 - Jieux - Same State 1] |  |  | 0.112 µM | 0.5 µM
16 | CUGGACCUAGGAUAGGAUAUGUGAAUAAUUACAUGAGGAUCACCCAUGUCCAUUUAUAUGGGAACAUAGAAGGGUUUUGGUUAAG [Mat - Same state - Malcolm Mod - D147] |  |  | 0.103 µM | 0.164 µM
17 | AAAGACAUAGUUCAGGAUAUGGUAAUAGUCACAUGAGGAUCACCCAUGUGCAUUUAUAUGCGCGAUCAGAAGGGAGGUAGAUAUA [SameState2 Malc#18] |  |  | 0.0188 µM | 0.0177 µM
18 | AUAAAUAAAGUUAAGGAUAUUAUAAAGAAAACAUGAGGAUCACCCAUGUAAAAGAAAAUAGUGGGUAAGAAGGUAACAAAUAAAU [SS2 M 18] |  |  | 0.0231 µM | 0.0427 µM
19 | AAGAAACAUGAGGAUCACCCAUGUAGAAACAUGGGAGGAUAUACGAAGACGAAAGUCAAAGUAGAAGGCCUAAAAA [Garnet 90] |  |  | 0.0788 µM | 0.198 µM
20 | AAAAAAGAUCGCGAGGAUAUCCGAGUGGUAACAUGAGGAUCACCCAUGUGAAGAAAGGAACAUGAGGAGAAGGCGCGAUCAAAAA [viburnum 5] |  |  | 0.0109 µM | 0.0187 µM
